Literature values as cited in paper PMC10631023.
Where “and” joins values, the source holds several entries; their conditions need not be identical. Equal values may be shown once.

How the values were obtained:
[1] = biological target: PSGL-1 (Homo sapiens) (UniProt Q14242)
[2] = biological target: VSIG-3 (Homo sapiens) (UniProt Q5DX21)
Sequence of UniProt Q5DX21 (Q5DX21 23-241): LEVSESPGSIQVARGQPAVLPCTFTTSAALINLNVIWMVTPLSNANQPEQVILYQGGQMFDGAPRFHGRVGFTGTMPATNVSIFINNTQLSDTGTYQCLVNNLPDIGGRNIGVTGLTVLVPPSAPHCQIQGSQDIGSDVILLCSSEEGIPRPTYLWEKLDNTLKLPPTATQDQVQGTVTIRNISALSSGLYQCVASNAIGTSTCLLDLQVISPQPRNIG

Sequence of UniProt Q14242 (Q14242 42-320): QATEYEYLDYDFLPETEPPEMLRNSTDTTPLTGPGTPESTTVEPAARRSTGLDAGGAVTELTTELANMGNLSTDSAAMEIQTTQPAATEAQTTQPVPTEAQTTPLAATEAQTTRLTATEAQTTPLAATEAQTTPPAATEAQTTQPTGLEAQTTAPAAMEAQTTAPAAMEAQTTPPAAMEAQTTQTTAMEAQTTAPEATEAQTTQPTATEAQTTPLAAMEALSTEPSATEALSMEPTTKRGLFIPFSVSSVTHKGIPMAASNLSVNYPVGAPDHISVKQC

VISTA (from UniProt Q9H7M9)
Kd [1]: 0.004 µM
Kd [2]: 0.02 µM and 0.08 µM
